Sequences and labels used below:
T1: biotinylated human DLL3 protein expressed as a human IgG1 fusion protein (human, UniProt Q9NYJ7 27-492, limits assumed, biotinylated)
T1 sequence: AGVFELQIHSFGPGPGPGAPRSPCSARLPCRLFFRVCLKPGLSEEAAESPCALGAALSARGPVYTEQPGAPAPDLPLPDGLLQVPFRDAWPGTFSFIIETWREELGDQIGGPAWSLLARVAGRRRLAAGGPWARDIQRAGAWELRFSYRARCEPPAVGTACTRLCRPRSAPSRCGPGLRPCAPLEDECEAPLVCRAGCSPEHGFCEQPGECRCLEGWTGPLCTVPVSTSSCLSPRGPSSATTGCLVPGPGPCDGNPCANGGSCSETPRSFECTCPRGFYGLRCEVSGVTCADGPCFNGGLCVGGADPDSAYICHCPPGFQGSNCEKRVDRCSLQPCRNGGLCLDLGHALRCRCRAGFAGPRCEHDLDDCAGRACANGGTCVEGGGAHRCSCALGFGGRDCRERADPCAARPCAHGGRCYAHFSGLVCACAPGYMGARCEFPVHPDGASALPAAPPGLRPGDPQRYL

B1: 4A09 anti-DLL3 trispecific protein (other)
chain: EVQLVESGGGLVQPGGSLTLSCAASGSSVKFLSMAWYRQAPGKKRELVAGISADGSTDYIGSVKGRFTISRDNAKNSVYLQMNSLRAEDTAVYYCYAYRWTTRVTYWGQGTLVTVSS
notes: not shown: linker 1808, anti-albumin sdAb, linker 1808, anti-CD3 fragment, His6 1819
B2: 4C03 anti-DLL3 trispecific protein (other)
chain: EVQLVESGGGLVQPGGSLTLSCAASGSKVSFMSMAWYRQAPGKKRELVAGISVDGSTDYIDSVKGRFTISRDNAKNSVYLQMNSLRAEDTAVYYCYAYRWRTRYTYWGQGTLVTVSS
notes: as for B1
B3: 4B08 anti-DLL3 trispecific protein (other)
chain: EVQLVESGGGLVQPGGSLTLSCAASGSSVSFMSMAWYRQAPGKKRELVAGISADGSTDYIASVKGRFTISRDNAKNSVYLQMNSLRAEDTAVYYCYAYRWTTRSTYWGQGTLVTVSS
notes: as for B1
B4: 4C05 anti-DLL3 trispecific protein (other)
chain: EVQLVESGGGLVQPGGSLTLSCAASGSSVSNLSMAWYRQAPGKKRELVAGISADGSTAYIDSVKGRFTISRDNAKNSVYLQMNSLRAEDTAVYYCYAYRWTTRRTYWGQGTLVTVSS
notes: as for B1
B5: 4C02 anti-DLL3 trispecific protein (other)
chain: EVQLVESGGGLVQPGGSLTLSCAASGSKVSFLSMAWYRQAPGKKRELVAGISADGSTTYIDSVKGRFTISRDNAKNSVYLQMNSLRAEDTAVYYCYAYRWTTRFTYWGQGTLVTVSS
notes: as for B1
B6: 4D04 anti-DLL3 trispecific protein (other)
chain: EVQLVESGGGLVQPGGSLTLSCAASGSSVSFLSIAWYRQAPGKKRELVAGISKDGSTDYIDSVKGRFTISRDNAKNSVYLQMNSLRAEDTAVYYCYAYRWTTRMTYWGQGTLVTVSS
notes: as for B1
B7: 4C08 anti-DLL3 trispecific protein (other)
chain: EVQLVESGGGLVQPGGSLTLSCVASGSQVSFLSMAWYRQAPGKKRELVAGISADGSTDYFDSVKGRFTISRDNAKNSVYLQMNSLRAEDTAVYYCYAYRWTRRYTYWGQGTLVTVSS
notes: as for B1
B8: 4D01 anti-DLL3 trispecific protein (other)
chain: EVQLVESGGGLVQPGGSLTLSCAASGSSVRFLSMAWYRQAPGKKRELVAGISADGSTVYIDSVKGRFTISRDNAKNSVYLQMNSLRAEDTAVYYCYAYRWTTRRTYWGQGTLVTVSS
notes: as for B1
B9: 4A010 anti-DLL3 trispecific protein (other)
chain: EVQLVESGGGLVQPGGSLTLSCAASGSSVRFLSMAWYRQAPGKKRELVAGISADGSTVYIDSVKGRFTISRDNAKNSVYLQMNSLRAEDTAVYYCYAYRWTTRYKYWGQGTLVTVSS
notes: as for B1
B10: 4E06 anti-DLL3 trispecific protein (other)
chain: EVQLVESGGGLVQPGGSLTLSCAASGTSVSFLSMAWYRQAPGKKRELVAGISADGSTDYIRSVKGRFTISRDNAKNSVYLQMNSLRAEDTAVYYCYAYRWTTRLTYWGQGTLVTVSS
notes: as for B1
B11: 4C07 anti-DLL3 trispecific protein (other)
chain: EVQLVESGGGLVQPGGSLTLSCAASGSKVSFLSMAWYRQAPGKKRELVAGISADGSKDYIDSVKGRFTISRDNAKNSVYLQMNSLRAEDTAVYYCYAYRWTTRLTYWGQGTLVTVSS
notes: as for B1
B12: 4E07 anti-DLL3 trispecific protein (other)
chain: EVQLVESGGGLVQPGGSLTLSCAASGSRVSFLSMAWYRQAPGKKRELVAGISADGSTMYIDSVKGRFTISRDNAKNSVYLQMNSLRAEDTAVYYCYAYRWTTRLTYWGQGTLVTVSS
notes: as for B1
B13: 4C011 anti-DLL3 trispecific protein (other)
chain: EVQLVESGGGLVQPGGSLTLSCAASGSRVSFLSMAWYRQAPGKKRELVAGISADGSTVYIDSVKGRFTISRDNAKNSVYLQMNSLRAEDTAVYYCYAYRWTRRYTYWGQGTLVTVSS
notes: as for B1
B14: 4E01 anti-DLL3 trispecific protein (other)
chain: EVQLVESGGGLVQPGGSLTLSCAASGSSVSFLSVAWYRQAPGKKRELVAGISRDGSTDYIDSVKGRFTISRDNAKNSVYLQMNSLRAEDTAVYYCYAYRWRTRYTYWGQGTLVTVSS
notes: as for B1
B15: 4D08 anti-DLL3 trispecific protein (other)
chain: EVQLVESGGGLVQPGGSLTLSCAASGSSVNFLSMAWYRQAPGKKRELVAGISADGSTHYIDSVKGRFTISRDNAKNSVYLQMNSLRAEDTAVYYCYAYRWLTRYTYWGQGTLVTVSS
notes: as for B1
B16: 4B06 anti-DLL3 trispecific protein (other)
chain: EVQLVESGGGLVQPGGSLTLSCAASGSRVSFLSMAWYRQAPGKKRELVAGISADGSTDYFDSVKGRFTISRDNAKNSVYLQMNSLRAEDTAVYYCYAYRWTRRYTYWGQGTLVTVSS
notes: as for B1
B17: 4D05 anti-DLL3 trispecific protein (other)
chain: EVQLVESGGGLVQPGGSLTLSCAASGSSSSFLSMAWYRQAPGKKRELVAGISADGSTVYIDSVKGRFTISRDNAKNSVYLQMNSLRAEDTAVYYCYAYRWTTRRTYWGQGTLVTVSS
notes: as for B1
B18: 4D03 anti-DLL3 trispecific protein (other)
chain: EVQLVESGGGLVQPGGSLTLSCAASGSSVRFLSMAWYRQAPGKKRELVAGISATGSTDYIDSVKGRFTISRDNAKNSVYLQMNSLRAEDTAVYYCYAYRWTRRYTYWGQGTLVTVSS
notes: as for B1
B19: 4B04 anti-DLL3 trispecific protein (other)
chain: EVQLVESGGGLVQPGGSLTLSCAASGSSVLFLSMAWYRQAPGKKRELVAGVSSDGSTDYIDSVKGRFTISRDNAKNSVYLQMNSLRAEDTAVYYCYAYRWRTRYTYWGQGTLVTVSS
notes: as for B1
B20: 4C01 anti-DLL3 trispecific protein (other)
chain: EVQLVESGGGLVQPGGSLTLSCAASGSSVRFLSMAWYRQAPGKKRELVAGISADGSTVYIDSVKGRFTISRDNAKNSVYLQMNSLRAEDTAVYYCYAYRWKTRYTYWGQGTLVTVSS
notes: as for B1
B21: 4D010 anti-DLL3 trispecific protein (other)
chain: EVQLVESGGGLVQPGGSLTLSCAASGSSVSFLSMAWYRQAPGKKRELVAGISADGSTDYIHSVKGRFTISRDNAKNSVYLQMNSLRAEDTAVYYCYAYRWRTRYTYWGQGTLVTVSS
notes: as for B1
B22: 4E08 anti-DLL3 trispecific protein (other)
chain: EVQLVESGGGLVQPGGSLTLSCAASGSSVKFLSMAWYRQAPGKKRELVAGISTDGSTDYIDSVKGRFTISRDNAKNSVYLQMNSLRAEDTAVYYCYAYKWTTRYTYWGQGTLVTVSS
notes: as for B1
B23: 4C010 anti-DLL3 trispecific protein (other)
chain: EVQLVESGGGLVQPGGSLTLSCAASGSKVSFMSMAWYRQAPGKKRELVAGISADGSTDYIDSVKGRFTISRDNAKNSVYLQMNSLRAEDTAVYYCYAYRWTTRLTYWGQGTLVTVSS
notes: as for B1
B24: 4D06 anti-DLL3 trispecific protein (other)
chain: EVQLVESGGGLVQPGGSLTLSCAASGSSVKFLSMAWYRQAPGKKRELVAGISPDGSTDYIDSVKGRFTISRDNAKNSVYLQMNSLRAEDTAVYYCYAYRWTTRYRYWGQGTLVTVSS
notes: as for B1
B25: 4B01 anti-DLL3 trispecific protein (other)
chain: EVQLVESGGGLVQPGGSLTLSCAASGSSVKFLSMAWYRQAPGKKRELVAGISRDGSTDYIDSVKGRFTISRDNAKNSVYLQMNSLRAEDTAVYYCYAYRWTTRFTYWGQGTLVTVSS
notes: as for B1
B26: 4B09 anti-DLL3 trispecific protein (other)
chain: EVQLVESGGGLVQPGGSLTLSCAASGSSVSFLSMAWYRQAPGKKRELVAGISADGSTDYISSVKGRFTISRDNAKNSVYLQMNSLRAEDTAVYYCYAYSWTTRYTYWGQGTLVTVSS
notes: as for B1
B27: 4B02 anti-DLL3 trispecific protein (other)
chain: EVQLVESGGGLVQPGGSLTLSCAASGSRVSFLSMAWYRQAPGKKRELVAGISADGSTTYIDSVKGRFTISRDNAKNSVYLQMNSLRAEDTAVYYCYAYRWTTRFTYWGQGTLVTVSS
notes: as for B1
B28: 4A011 anti-DLL3 trispecific protein (other)
chain: EVQLVESGGGLVQPGGSLTLSCAASGSKVSFLSMAWYRQAPGKKRELVAGISADGSTTYIDSVKGRFTISRDNAKNSVYLQMNSLRAEDTAVYYCYAYRWKTRYTYWGQGTLVTVSS
notes: as for B1
B29: 4E09 anti-DLL3 trispecific protein (other)
chain: EVQLVESGGGLVQPGGSLTLSCAASGSSVSFLSSAWYRQAPGKKRELVAGISADGSTLYIDSVKGRFTISRDNAKNSVYLQMNSLRAEDTAVYYCYAYRWTTRSTYWGQGTLVTVSS
notes: as for B1
B30: 4D02 anti-DLL3 trispecific protein (other)
chain: EVQLVESGGGLVQPGGSLTLSCAASGSKVSFLSMAWYRQAPGKKRELVAGISARGSTDYIDSVKGRFTISRDNAKNSVYLQMNSLRAEDTAVYYCYAYQWTTRYTYWGQGTLVTVSS
notes: as for B1
B31: 4B05 anti-DLL3 trispecific protein (other)
chain: EVQLVESGGGLVQPGGSLTLSCAASGSRVSFLSMAWYRQAPGKKRELVAGISADGHTDYIDSVKGRFTISRDNAKNSVYLQMNSLRAEDTAVYYCYAYRWTTRYTHWGQGTLVTVSS
notes: as for B1

The test concerns the target T1, biotinylated human DLL3 protein …. Kind of test: Octet BLI, single 50 nM. Put shortly: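 Analyte: trispecific anti-DLL3 proteins in conditioned medium, concentration known; ligand: captured DLL3 fusion; output: binding affinity.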
By Kd is commonly meant a measure of binding affinity in units of concentration. A low value points to tighter binding. B1 registered a Kd of 9 nM.
In turn, B2 showed a dissociation constant (Kd) of 6.6 nM.
On to B3, for which the Kd stood at 10 nM.
Regarding B4, the Kd was determined as 8.3 nM.
Under B5 stands 6.8 nM; under B6, 8.6 nM; under B7, 16 nM.
Take B8: the affinity, expressed as Kd, was 3.7 nM.
To B9 belongs 2.3 nM; to B10, 10 nM.
The molecule B11 yielded a Kd of 7.5 nM.
The molecule B12 showed a Kd of 11 nM.
For B13, binding was characterised by a dissociation constant (Kd) of 6 nM.
Take B14: the Kd is 11 nM.
B15 had a Kd of 5.9 nM.
B16: the Kd is 16 nM.
B17 showed a Kd of 6.5 nM.
For the molecule B18, binding was put at a Kd of 26 nM.
Regarding B19, the Kd turned out to be 12 nM.
For B20, the Kd was found to be 5.1 nM.
B21 had a Kd of 9.9 nM.
To B22 belongs 7.2 nM.
To B23 belongs 7 nM; to B24, 7.5 nM; to B25, 11 nM.
Molecule B26 displayed a Kd of 5.4 nM.
Take B27: the Kd was 7.1 nM.
To B28 belongs 5.6 nM; to B29, 9.1 nM; to B30, 30 nM.
With B31, the Kd stood at 18 nM.

The values above are taken from US20240141072A1 (published 2024).
